Assay: soluble on expression in E. coli; label from the status in PepcDB or PDB records

Sequence	soluble on expression in E. coli
MGSDKIHHHHHHACSSDDDNTVNDETTPPEEEAVVTAPDVVGTYWGNLDISMLPDGSDQEVVIADGLPKFITFSQVSDTEVKMELKEFELFINGNILKFGDIVIDKCAVKKETDASTFTGQQDLTFQGDAAALGTCATSIEGTVQSGNATMNIQVKVPALKQTVKVAFSGVKQVEESGKD	not soluble
MGSDKIHHHHHHMNDYKALRTFLLAAEKRNFAQVARELDMTPAAVTRAIAALEAELGVQLFVRTTRQVSLTTDGAIFAAQLQPAVKTIEDARREVMNAHKADEGRLRISAPTWFGKAVLPPILSAFKERYPKMSFEISLSDGLVNIVDDDYDLAIRISSQPSDKFTIWRKIRVVPRILVAAPGSRFVDMQHPNELTPDDCLAYSGDSRRENWVLSDGGSSITISAGRAFSANNGEVLADIAADGAGVAMLPGFHIFEHLRTGRLVHVFKGWAPPDLWLTLYYPPYQALPPRIASFSKFFEEQVPAHMVMLD	not soluble
MPVEEKKKGMAIHSSLSLSLSLSLSLSLSLCDSEREG	not soluble
MEATQQAERKSMNKSQAFANASHDIRGALAGMKGLIDICRDGVKPGSDVDTTLNQVNVCAKDLVALLNSVLDMSKIESGKMQLVEEDFNLSKLLEDVIDFYHPVAMKKGVDVVLDPHDGSVFKFSNVRGDSGRLKQILNNLVSNAVKFTVDGHIAVRAWAQRPGSNSSVVLASYPKGVSKFVKSMFCKNKEESSTYETEISNSIRNNANTMEFVFEVDDTGKGIPMEMRKSVFENYVQVRETAQGHQGTGLGLGIVQSLVRLMGGEIRITDKAMGEKGTCFQFNVLLTTLESPPVSDMK	not soluble
MGSDKIHHHHHHMKDVARDIYLSRDKIDEIKRKRFRSTLKYVYDNSPFYRRLFKESGVDIDSIKEPADIAKLPFTTKQNLRESYPLKMACVEKEKIVRIQMSGGTTGQPVIIPYTRHDVEQWKEMLLRDFYLAGITSKDVIQITPAFGLWNGGFGFHFAADAIDAFVIPIGAGNTRNQVRFMVDFGTTVLCATASYPLRIAEVAEEMGYEPAELPVQKMLLGAEPWSEEMRRQIEKTFNCKAFDIPGLTEMGGVGTVGFECPSRNGLHIWEDNYIVEIVDPETGEVLEDGEEGEIVYTSLNREAMPLIRYRSGEVSAVVSREKCECGIEHMTIKRIRGRTDDMVIYKGVKFYPSDVEQILASYGVRHYRIEVGEGIRVIFEGENGLARKVIKDIKEFLGFSPRIEVVQPGSLERFEGKAKRLFRG	not soluble
GLNHMTARYLREEHHMFRAAFRKFLEKEAYPHYNDWEKRGIIPRSFWAKMGENGFLCPWVDEKYGGLNADFAYSVVINEELEKVGSSLVGIGLHNDIVTPYIASYGTEEQKQKWLPKCVTGELITAIAMTEPGAGSDLANISTTAVKDGDYYIVNGQKTFITNGIHADLIVVACKTDPQAKPPHRGISLLVVERDTPGFTRGRKLEKVGLHAQDTAELFFQDAKVPAYNLLGEEGKGFYYLMEKLQQERLVVAIAAQTAAEVMFSLTKQYVKQRTAFGKRVSEFQTVQFRLAEMATEIALGRTFVDRVIEEHMAGKQIVTEVSMAKWWITEMAKRVAAEAMQLHGGYGYMEEYEIARRYRDIPVSAIYAGTNEMMKTIIARQLDL	soluble
MSLGEEFHRNRTRFTKDPRVKSQDLLILALMDNQLRPTLHYQAQNPHRRVLVTGATGYIGGRLITELLAAGFQVRATSRKKTSLQRFDWYEDVEAVEADLTDATELDTLFKDVDVVYYLVHSMGGKNVDFEEQEQRTAENVIQAADQAGIKQIVYLSGLHPRNRKIEELSKHMRSREKVAQILLAGQTPALILRAATIIGSGSASFEIIRHLTERLPRMIAPQWITNQIEPLAIRDVLHYLISAADLKDPVNRSCDIGCGKSYEFADLLRIYADVRGLKRHVNSVPLNLPMDKLSGLWISLVTPVPFQLSFPLAQSMAEDAVTEEHSIKDIISDPPDGFIEYREAVELALAAEFDRGVPTSWDRSWTVQQPWAGQPTDPEWAGKAVYEDVRTEDTDLRAAQVWPIIEGLGGVNGWYSAPLLWRLRGIADRLIGGPGLGGRRDPRHLKLGDRIDWWRVTEIDPPHRLVLTAEMKVDGGAWLILEVADKENGGCTYTQRAIFEPKGEGHHHHHH	not soluble
MLISKVIKKQFAQETIENVHIAKGTAMFQGVRLTVRCFVIDGVLIDTGAKSMENEFTSFFQQQDIDQVVITHFHEDHTGCAAFLQRKMGLPIYMNELMIHYCQQKADYPLYRKVFWGKRDPFTAKPIGATFSSRSATWDVIPTPGHSIDHVAFLNRETGQLFSGDLYCQEKTKVILREENIPAIITSLQHVLTYDFGDVFCAHAGYLPNGREALQRKLDYLLELQGTIIDLYEKGTPPKQIQALLFPKKYPIVFFSGGEWDSLHIIRSVIQEYETKQAG	not soluble
MGSDKIHHHHHHMAQVLWIIQIISKGLVRTLRFKAHILRMILLGSLGVAIHVSVVNAAVTDNSLPQESIPLVQGFIDAVKAHDRQAIADYMAYPIKRTNPIPAINTPEELLKRFDQVFDPEILETIAQSQVEADWQAMGWRGIMLGSGTIWMDFDGKITAVNYQTPAETKLKAELIANQKTGLHESVSQFVSPELAWQTAKFTIRVDNMGNSQYRYASWAKGKPLSEKPDLVLNQGKLVFDGSGGNHSFQFTSGPYLYVCDVIVLGTSDSPIGELVVFKHDRVLLREPAIKAE	not soluble
MSLKHPDPAQKVEGTTATTPTKVAAFFDLDKTIIAMSSTYAYGREFMNSGLISPVEALQLSLAQATYMFAGHTSEQMDNTRDQLTAMIRGWEVQQVRSIAEETMHSVVTPTIYAEARELIEHHQELGHDVIIISASVKELVEPIARELGVHKTVTTVLEAHDGMYTGEVLFYCKGDAKAQSILDLAEANNYDLSLSFAYSDSFTDLPMLEAVGNPAAVNPDRALKKIALEQGWKILSFKNPEPLFQEGHHHHHH	soluble
HMDPDELPLDEHCERLPYDASKWEFPRDRLNLGKPLGRGAFGQVIEADAFGIDKTATCRTVAVKMLKEGATHSEHRALMSELKILIHIGHHLNVVNLLGACTKPGGPLMVIVEFCKFGNLSTYLRSKRNEFVPYKTPEDLYKDFLTLEHLICYSFQVAKGMEFLASRKCIHRDLAARNILLSEKNVVKICDFGLARDIYKDPDYVRKGDARLPLKWMAPETIFDRVYTIQSDVWSFGVLLWEIFSLGASPYPGVKIDEEFCRRLKEGTRMRAPDYTTPEMYQTMLDCWHGEPSQRPTFSELVEHLGNLLQANAQQD	soluble
MRMAAMHSGGKTIQLNAGHYQAKIVTVGAGLAELTHHGRHVVIPHKPEEIPMAHLGKVLIPWPNRVTNGCYSYNGKVFQLAVNDPVSQTAIHGLLAWRDWQINYQSATEASLTIFLPPSYGYPFALISEVIYRLDAASGLHVLIRTQNIGDESAPYGAGAHPYLTCNLQSIDSCVLTLPASEELPAGRDFSASCLLGETRLDHAVKTATTPAEWEVRLTSPTQNMSTFLRSTQPWLQIYTGEKLSRKGLAVEPMSCPPDAFNSGIALIHLAPKAIHQLHFSIGCD	not soluble
MEQQLKDIISACDLAIQNEDFDTLMNYYSEDAVLVVKPGMIARGKEEIKKAFITIANYFNHHIVPTQGKMILLEAGDTVLVLSQTLLDSDKKDSEYAMERRATYVFKKNAQGEWLCVIDNSYGTDLIGVMAGDPLEHHHHHH	soluble
MNVAKNRKEKIAGLFLMCPGSGLDMNFVNTIQPGALQYLMKKGSINYPASKNGYPALLTVECLEEFLNTDISKTSPKVIDIQCPVLTVHGIEDNIVPVENSKKLMQRMASTYKDFHRIPGVDHNFDLDEEVLKRLGQLMDVIRENESKKLKAKI	not soluble
MGENYKFFNHKDCEFFPCHKTNKPEEFNCLFCYCPLYALGENCGGNFKYTDKGIKDCSSCILPHKKDNYNYIMSKFQDLVKITSKKLEHHHHHH	not soluble
MSPSIFPPINFLFQNSALLSSFAAQKALSNGHPSGSSLAALEKLSKAFRRPDLHIEKLASSCIDKQKDLKMTNVVPSRNRYGRPYISGRPLLTCDRQKIVECYKKGMKKIHIAKQLGITHSCVSKVLRR	not soluble
MGSDKIHHHHHHMTVVDDEKPAQAASGRFAAGEDPAKRDQILDGAKRAFMKHGFDAASMNDVTREAGVSKGTIYVYFQSKEDLFAALINNQKQKFAASMRDILAEETDLHMALRRYALAFTNYILTSEMIPAMRMLLAVQDRMPHLCQSFMRSGPENVRTVLEDYLEVQVKAGRLDIADTELAARQYIELATGAYFKKRLFGEIEVPPPQAEIDYIIDNALHIFLLAYDRKAENGPEAQRAN	not soluble
MRGSGPRDRGSNPRPATTPTALSYISLPTSDSTRWGGLAVARARGVVLGYRRGTNTQYPQHALVKLLLDDPRKAGLYVSGIAFYRDRYGNVYKGRVLRLHGRRGGVVVVKFNPPLPGQATGGVVEVVKAGGDGLEHHHHHH	not soluble
MKLFRVVKRGYYISYAILDNSTIIRLDEDPIKALMRYSENKEVLGDRVTGIDYQSLLKSFQINDIRITKPIDPPEVWGSGISYEMARERYSEENVAKILGKTIYEKVYDAVRPEIFFKATPNRCVGHGEAIAVRSDSEWTLPEPELAVVLDSNGKILGYTIMDDVSARDLEAENPLYLPQSKIYAGCCAFGPVIVTSDEIKNPYSLDITLKIVREGRVFFEGSVNTNKMRRKIEEQIQYLIRDNPIPDGTILTTGTAIVPGRDKGLKDEDIVEITISNIGTLITPVKKRRKIT	soluble
MGSDKIHHHHHHMAILTITKQFGSGGGEIGSAVANLLGYEYIPLKRVFEEAGQAGNRIKKLADEVSKSVPGLWERTDWSFLAFVAFSQSTILNYALQNNIVVMTRGGNMLLKSIPHALRILVTAPFDVRVRRIMEREEISEEIAVMMAKKADREMAVTIQQIYGTNWMDPTEYDQVIDTSKQNWNEIARSLKDSLMAKEKDFTAEAQKILNMKALATYIKVKIMTSPAFITPTLEVEMKGDILVISGVVRNPDQHKRIEEEVKKLAGDRYVEFHIHYRGSWPFRGI	not soluble
MSAEEKNLIEILEEGHKVDVVKYIDYVSAPQAGAIATFSGTTRDMFEGKTVLELRYEAYVPMATRCLSSICTTARSTWDIHKIAVAHRLGPVPVGETSVLIAVSSVHRADGLDACKFLIDELKASVPIWKKEVYTNGEIWKENSEFMEKRLELAEKRDSIVKKTVVEEHRRRGCCGSKVRVEEDEEHKDITGDNKSSS	soluble
MSNSNKLIAEKNGSRYGRMIHPWLRKKQDMLADTPSRREGMTYEEELSKRQQGGVFIFDIAMQLTHGKGEHGLSGVAATLFNRFFNVHSLKRCDFRDVAAACVFLAGKNEDAPKKLKYVVTQLWQFKYPHNKQFQSEQHFLDQCNVVTLIEDVLLKTISFDINVDLPHQYVLKLMRDVEKGRNVYKDMVKTAYYMATDVLIITDWSVRYSCASIATACVNIAAFFHNINMDDIVPFELSDRWYRLEDQSMTREEVEAMTKEFLDIFSRNPQFHIGSLKKIDPLGKVKIVGMPPQVSSTVTPSGSSSNLKKIDLESYKGRPKPLSNSSDSPSTRPSFLPDVKNQKVVEQELMEQRMKEAAQQKIHRNGHRPSSSSHPLHHHSTSSSASNNSNHQNRSSSGLSAHQHQKPYNEDSRSAKRSMMYEETNSSKKPRIDYKMSFVASSSTTIATMHNDHFSQTTHQQNISTYARGVNEMMLNQVAPPPLMSVSAQPSTYQKMCMEYQRNPADSRHTMSSTQQISPPDEPSPPVSQILLPPPPPPPILPPRLDEMEEGELV	not soluble
MGSDKIHHHHHHMLSVAIPKAKPLLKQEKVATTAQKNQKEVIHYTAIGDSLTEGIGDLTNSGGFVPIVADDLKEHYNLNGVQTDNFGKNGDRSDQILKRIKEKPEIQKGLASADVITLTVGGNDLMKVISSNIFDLKVSSFNRPQKAYQRRVRRLLEEIREYNEKAPIYVLGIYNPFYLNFSEITEMQEIVDNWNQATEEMVQEQKRAYFIPINDLLYKGRGDEVGVTGGDSETTGSSASKEDLNNLLYEEDRFHPNNLGYQIMAGAVRDEMVKTEKEWITKSEGSE	not soluble
